This note sets out measurements from patent US20260144867A1 (TIGATX, published 2026).

The experiment concerns the target T1, EGFR expressed on A431, A1207 and D562 cell lines (human, UniProt P00533 25-1210).
T1 construct: whole, on cells; also called EGFR-expressing A431 cell line
Briefly: competitive flow cytometry on A431 cells; blocked ligand: fluorescently labeled EGF (EGF-AL488). In general terms: A flow cytometer gives signals particle by particle.

B1: anti-EGFR IgA3.0min DP3 (antibody, V domains shown)
VH: QVQLVQSGAEVKKPGASVKVSCKASGYTFTSHWMHWVRQAPGQGLEWIGEFNPSNGRTNYNEKFKSKATMTVDTSTNTAYMELSSLRSEDTAVYYCASRDYDYDGRYFDYWGQGTLVTVSS
VL: DIQMTQSPSSLSASVGDRVTITCSASSSVTYMYWYQQKPGKAPKLLIYDTSNLASGVPSRFSGSGSGTDYTFTISSLQPEDIATYYCQQWSSHIFTFGQGTKVEIKR
notes: also called anti-EGFR IgA3.0min DS3
Take B1: the “IC50 (read off the curve)” value was about 3 mg/L.
